Stoichiometry N data for three substances are collected here from paper PMC11303214.

As usually defined, the stoichiometry N is a count of units in the complex or per binding partner.

Holding throughout (assay): SEC; Superdex200 column, PBS buffer pH 7.4, after nickel affinity chromatography
Background: Size exclusion chromatography separates by hydrodynamic size, large species first.

Assay [1] concerns the target SsA1 (R-1b variant with the V157C-N183C disulfide) (respiratory syncytial virus (RSV) | bacteriophage T4) (UniProt P03420).
In assay [2] the target is SsA2 (R-1b variant with the A55C-L188C disulfide) (respiratory syncytial virus (RSV) | bacteriophage T4) (UniProt P03420).
The target in assay [3] is SsB1 (R-1b variant with the S443C-S466C disulfide) (respiratory syncytial virus (RSV) | bacteriophage T4) (UniProt P03420).

In assay [1], “SsA1 (R-1b variant with the V157C-N183C disulfide) (from UniProt P03420 26-105; P03420 137-513)” showed a stoichiometry N of 3.
In turn, “SsA2 (R-1b variant with the A55C-L188C disulfide) (from UniProt P03420 26-105; P03420 137-513)” returned a stoichiometry N in assay [2] of 3.
In the case of “SsB1 (R-1b variant with the S443C-S466C disulfide) (from UniProt P03420 26-105; P03420 137-513)”, the stoichiometry N in assay [3] turned out to be 3.
